Paper PMC10546976

B1: oligo(A)25 (ssRNA)
RNA: AAAAAAAAAAAAAAAAAAAAAAAAA

Assays:
[1] = test system: neuPABP (PABPC1L2); experiment: EMSA; details: […] (100 nM), 1 h at 30 C, pH not stated
[2] = biological target: PABPC1 (UniProt P11940 1-636); experiment: EMSA
Chain of PABPC1 (P11940 whole entry): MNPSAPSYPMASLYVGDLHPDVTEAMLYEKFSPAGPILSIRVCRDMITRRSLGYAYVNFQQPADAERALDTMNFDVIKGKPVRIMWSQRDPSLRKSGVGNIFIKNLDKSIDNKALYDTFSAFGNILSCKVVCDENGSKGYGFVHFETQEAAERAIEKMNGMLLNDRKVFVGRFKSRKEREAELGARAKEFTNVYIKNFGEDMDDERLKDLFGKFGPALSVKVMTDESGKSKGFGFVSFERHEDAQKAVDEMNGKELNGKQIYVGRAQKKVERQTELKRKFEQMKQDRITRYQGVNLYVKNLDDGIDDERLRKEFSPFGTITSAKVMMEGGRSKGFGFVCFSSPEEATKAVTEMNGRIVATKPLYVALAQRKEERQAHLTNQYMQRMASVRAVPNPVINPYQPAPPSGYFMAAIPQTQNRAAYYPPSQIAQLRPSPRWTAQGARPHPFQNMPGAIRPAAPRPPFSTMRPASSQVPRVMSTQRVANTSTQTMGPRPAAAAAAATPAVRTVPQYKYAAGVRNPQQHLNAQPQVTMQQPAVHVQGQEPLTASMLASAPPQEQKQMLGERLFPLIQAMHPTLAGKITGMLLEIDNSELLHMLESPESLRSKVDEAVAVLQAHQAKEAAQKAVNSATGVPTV

Row | Molecule | Kd [1] | Kd [2]
1 | AAAAAAAAAAAAAAAAAAAAAAAAA [oligo(A)25] | 50 nM | 
2 | B1 |  | ~50 nM
